One series concerns the target Cys25 (UniProt position 150, GACGSCWAFSA). As to the kind of experiment: kinetics. To be noted: 35 °C, constant ionic strength (four-component buffer; value not stated), 25 mM glycine, 25 mM acetic acid, 25 mM Mes, 75 mM Tris, 5 mM DTT, pH adjusted with HCl or NaOH.
The target of another series is His163 (UniProt position 288, GKQLNHGVLLV). As to the kind of experiment: kinetics. To be noted: 35 °C, constant ionic strength (four-component buffer; value not stated), 25 mM glycine, 25 mM acetic acid, 25 mM Mes, 75 mM Tris, 5 mM DTT, pH adjusted with HCl or NaOH.
Where [1] appears, read: Enzyme-substrate complex (saturating Z-FR-MCA) in the presence of 40 µM heparin (10 kDa bovine lung heparin).
Where [2] appears, read: Enzyme-substrate complex (saturating Z-FR-MCA), no heparin (control).

The term pKa denotes the negative logarithm of the acid dissociation constant. On to “Cysteine protease B isoform CPB2.8 lacking the C-terminal extension (CPB2.8ΔCTE, rCPB2.8), cathepsin L-like (Leishmania mexicana; none (C-terminal extension deleted; residue range not stated))”, for which the pKa in the series with Cys25 (setting [1]) was found to be 4.6± 0.1; with Cys25 (setting [2]), 5.1±0.1; with His163 (setting [1]) it was 8.8±0.1; in the series with His163 (setting [2]), 7.8±0.1.

These data come from PMC3836952.
